According to doi:10.1101/2020.04.08.026906:
pKd: −log10 of the molar value.

Biological target: C3b (UniProt P01024)
Experiment: SPR

UniProt P01024, sequence (P01024 whole entry, looked up): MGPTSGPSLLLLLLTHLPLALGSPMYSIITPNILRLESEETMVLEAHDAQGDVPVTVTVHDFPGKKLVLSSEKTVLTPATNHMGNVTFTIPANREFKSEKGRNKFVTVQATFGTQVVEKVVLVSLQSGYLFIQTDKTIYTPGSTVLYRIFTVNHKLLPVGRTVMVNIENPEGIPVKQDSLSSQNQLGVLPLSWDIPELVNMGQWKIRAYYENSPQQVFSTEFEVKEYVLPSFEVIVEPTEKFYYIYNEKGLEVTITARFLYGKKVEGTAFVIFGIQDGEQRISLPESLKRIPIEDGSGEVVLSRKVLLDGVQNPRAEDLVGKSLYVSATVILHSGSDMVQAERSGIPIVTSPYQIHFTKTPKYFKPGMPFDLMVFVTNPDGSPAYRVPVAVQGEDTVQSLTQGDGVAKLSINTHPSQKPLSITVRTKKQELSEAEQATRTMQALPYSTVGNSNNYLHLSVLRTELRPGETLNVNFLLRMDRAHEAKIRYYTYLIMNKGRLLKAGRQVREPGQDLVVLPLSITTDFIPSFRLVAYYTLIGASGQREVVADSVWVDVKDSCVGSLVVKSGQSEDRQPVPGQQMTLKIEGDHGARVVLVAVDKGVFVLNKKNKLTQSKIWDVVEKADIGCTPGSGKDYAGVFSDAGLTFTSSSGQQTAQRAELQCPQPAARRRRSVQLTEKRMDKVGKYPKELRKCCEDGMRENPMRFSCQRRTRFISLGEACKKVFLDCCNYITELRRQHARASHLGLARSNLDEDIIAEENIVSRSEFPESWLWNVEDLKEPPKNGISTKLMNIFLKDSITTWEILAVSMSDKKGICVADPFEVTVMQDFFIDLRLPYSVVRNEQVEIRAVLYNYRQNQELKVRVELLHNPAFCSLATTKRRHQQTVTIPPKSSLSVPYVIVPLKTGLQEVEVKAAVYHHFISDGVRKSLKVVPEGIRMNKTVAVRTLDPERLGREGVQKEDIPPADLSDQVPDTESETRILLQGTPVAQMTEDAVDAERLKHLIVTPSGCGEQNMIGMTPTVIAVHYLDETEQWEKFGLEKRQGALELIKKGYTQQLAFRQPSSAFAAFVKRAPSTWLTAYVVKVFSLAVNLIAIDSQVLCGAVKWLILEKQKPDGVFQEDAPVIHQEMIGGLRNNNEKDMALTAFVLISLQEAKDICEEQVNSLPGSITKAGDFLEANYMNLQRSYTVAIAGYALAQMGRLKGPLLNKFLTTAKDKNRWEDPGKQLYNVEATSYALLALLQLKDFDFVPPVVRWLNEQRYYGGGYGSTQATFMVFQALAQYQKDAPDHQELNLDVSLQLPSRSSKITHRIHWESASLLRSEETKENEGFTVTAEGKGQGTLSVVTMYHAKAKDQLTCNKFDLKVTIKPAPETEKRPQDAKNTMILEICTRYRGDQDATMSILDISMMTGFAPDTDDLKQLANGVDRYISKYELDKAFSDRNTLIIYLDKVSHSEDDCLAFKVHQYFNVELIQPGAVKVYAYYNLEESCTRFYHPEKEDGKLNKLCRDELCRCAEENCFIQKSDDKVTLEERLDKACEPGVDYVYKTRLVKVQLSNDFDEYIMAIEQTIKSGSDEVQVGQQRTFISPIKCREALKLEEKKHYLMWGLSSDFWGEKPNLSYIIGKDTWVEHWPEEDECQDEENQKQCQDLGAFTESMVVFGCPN

plasma derived Factor H (from UniProt P08603 19-1231) (natural protein)
KD with anti-FH.07.1 Fab' fragments: 1.9 µM
pKd: 5.22
